Test results published in US20260201035A1 (published 2026).

How the values were obtained:
Assay in all cases: fluorescence microscopy, LentiX cells co-expressing Lck (FIG. 38)
[1] = target: T1, GFP-tagged PD1, wildtype PD1 (Y223/Y248) (UniProt Q15116 25-288, tyrosine phosphorylation by co-expressed Lck (implied, not measured in this experiment))
T1 construct: whole, on cells; In LentiX cells co-expressing Lck; not shown: GFP tag

[2] = target: T2, GFP-tagged PD1, F223/F248 PD1 (UniProt Q15116 25-288)
T2 construct: whole, on cells; In LentiX cells co-expressing Lck; not shown: GFP tag

[3] = target: T3, GFP-tagged PD1, F223/Y248 PD1 (UniProt Q15116 25-288)
T3 construct: whole, on cells; In LentiX cells co-expressing Lck; not shown: GFP tag

[4] = target: T4, GFP-tagged PD1, Y223/F248 PD1 (UniProt Q15116 25-288)
T4 construct: whole, on cells; In LentiX cells co-expressing Lck; not shown: GFP tag

Measured: binding result

B1: mCherry-tagged Binder-NT7 (designed binder)
chain: ERFDSLTDLVEHYKKNPMVETLGTVLQLKQPLGGSGGGWFHGHLSGKEAEKLLTEKGKHGSFLVRESQSHPGDFVLSVRTGDDKGESNDGKSKVTHVMIRCQELKYDVGGGGGSQLQESGGGLVQAGGSLRLSCAASGYIFSRWYMGWYRQAPGKEREFVAGIDQGSITYYADSVKGRFTISRDNAKNTVYLQMNSLKPEDTAVYYCAAVAWAGYPWYYKHAYWGQGTQVTVSS
notes: Expressed in LentiX cells co-expressing Lck; not shown: mCherry tag
binds: all assays above
